Test results published in patent US20210238298A1 (ALLIGATOR BIOSCIENCE, published 2021).

T1: Human OX40 (R&D systems, #3358_OX) (human, UniProt P43489 29-216)
T1 construct: Bought; Several catalogue numbers are given for it; also called human OX40 (R&D Systems, 3388-OX); OX40-Fc (R&D systems, #3358_OX); not shown: Fc part
T1 sequence: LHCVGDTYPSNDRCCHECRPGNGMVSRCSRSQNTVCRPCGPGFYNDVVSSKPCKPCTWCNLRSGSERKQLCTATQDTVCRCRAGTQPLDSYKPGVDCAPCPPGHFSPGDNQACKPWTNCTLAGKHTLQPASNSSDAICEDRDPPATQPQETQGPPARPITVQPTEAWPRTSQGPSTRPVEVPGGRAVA

T2: OX40 chimera 1549: human OX40 with mouse domains 1A and 4B and non-annotated extracellular region (aa 30-65 … (human; mouse, UniProt P47741 26-61; P47741 125-211)
T2 construct: domain: 1A;domain: 4B and non-annotated extracellular region; Limits derived as for 1544
T2 sequence: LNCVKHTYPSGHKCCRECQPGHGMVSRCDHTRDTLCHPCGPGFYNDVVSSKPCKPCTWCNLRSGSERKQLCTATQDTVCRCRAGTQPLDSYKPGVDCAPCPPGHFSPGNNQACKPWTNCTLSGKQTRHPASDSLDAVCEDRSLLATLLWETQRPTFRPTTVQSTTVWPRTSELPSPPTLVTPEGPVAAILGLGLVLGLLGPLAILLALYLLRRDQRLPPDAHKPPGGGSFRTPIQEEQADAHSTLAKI

T3: OX40 chimera 1548: human OX40 with mouse module 3 and domains 4A and 4B (aa 108-167), on FreeStyle 293-F cells (human; mouse, UniProt P47741 104-165)
T3 construct: domain: module 3, 4A and 4B; Limits derived as for 1544
T3 sequence: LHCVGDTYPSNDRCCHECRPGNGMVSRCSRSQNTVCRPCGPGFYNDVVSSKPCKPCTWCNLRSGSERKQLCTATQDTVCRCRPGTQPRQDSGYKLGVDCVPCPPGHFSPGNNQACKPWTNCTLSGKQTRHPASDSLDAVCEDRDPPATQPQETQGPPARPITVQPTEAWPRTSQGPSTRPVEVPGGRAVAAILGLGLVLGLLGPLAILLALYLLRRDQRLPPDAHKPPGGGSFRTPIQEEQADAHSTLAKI

T4: murine OX40 (murine, UniProt P47741 20-211, limits assumed)
T4 sequence (looked up): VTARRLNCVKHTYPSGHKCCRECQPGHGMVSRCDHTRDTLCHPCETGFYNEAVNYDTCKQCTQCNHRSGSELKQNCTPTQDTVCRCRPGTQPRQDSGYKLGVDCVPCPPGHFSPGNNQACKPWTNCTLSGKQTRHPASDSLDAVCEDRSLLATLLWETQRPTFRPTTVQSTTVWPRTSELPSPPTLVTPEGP


Legend:
[1] = target: CD137 on primary human CD8+ T cells (human, UniProt Q07011 24-255); test: cell-based or functional assay
[2] = target: T1, Human OX40 (R&D systems, #3358_OX); test: ELISA, coated recombinant human OX40
Description: (§1) ELISA plates (Greiner #655074) were coated with 50 μl/well of recombinant human OX40 (R&D #1493-CD), CD40-Fc (Ancell #504-820) or CD137 (R&D #838-4B) diluted to a final concentration of 0.5 μg/ml in PBS for 1 h at 37° C. or overnight at 4° C. Plates were washed with PBS+0.05% TWEEN20 (PBST), followed by block with PBST+1% bovine serum albumin (BSA). Antibody samples were prepared as serial 1/10 dilutions from 10-0.01 μg/ml in PBST+1% BSA and incubated for 1h in room temperature, followed by detection using a horse radish peroxidase-conjugated anti-human kappa light chain antibody (AbD Serotec #STAR127P) and developed using SuperSignal ELISA Pico Chemiluminescent substrate (Pierce ThermoScientific #37069).

CD40 (Ancell) [3] = target: T5, CD40 (Ancell) (UniProt P25942 21-193); test: ELISA, coated CD40-Fc
T5 construct: also called CD40-Fc (Ancell #504-820); not shown: Fc part, not described
Description: as §1

[4] = target: T6, CD137 chimera 1554 (1411): human CD137 with mouse domains 3B, 4A and 4B (aa 97-159), on FreeStyle 293-F cells (human; mouse, UniProt P20334 96-159); test: flow cytometry, 293-F transfectants
T6 construct: domain: 3B, 4A and 4B

[5] = target: T7, CD137 chimera 1555 (1412): human CD137 with mouse domains 1 and 4B and region of unknown function (aa 24-46 … (human; mouse, UniProt P20334 24-45; P20334 139-185); test: flow cytometry, 293-F transfectants
T7 construct: domain: 1;domain: 4B and region of unknown function

[6] = target: T2, OX40 chimera 1549: human OX40 with …; test: flow cytometry, 293-F transfectants
Description: (§2) The mouse/human chimeras were transiently transfected into FreeStyle 293-F cells (Invitrogen), incubated 48 hours in FreeStyle 293 expression medium (Invitrogen) 37 C, 8% CO₂, 135 rpm. The transfected cells were incubated with human OX40 antibodies, human OX40L (hOX40L, RnD Systems), mouse OX40L (mOX40L, RnD Systems) and controls for 30 min 4° C. and then detected with a-huIgG-PE (Jackson Immunoresearch) 30 min 4° C. Cells were analyzed with FACS Verse (BD Biosciences). Binding to the different chimeric constructs were calculated as relative (mean fluorescence intensity) MFI compared to the binding of the isotype control.

[7] = target: T3, OX40 chimera 1548: human OX40 with …; test: flow cytometry, 293-F transfectants
Description: as §2

[8] = target: extracellular part of OX40 from Macaca mulatta fused to the transmembrane and intracellular part of hCD40, on … (Macaca mulatta; human, UniProt A0A5F7ZKD5 21-541; P25942 194-277); test: flow cytometry, macOX40-HEK cells; 95% confidence interval
Description: For the assay, the transfected cells were incubated with the test antibodies and controls for 30 min at 4° C. and then detected with a-huIgG-PE (Jackson Immunoresearch) 30 min 4° C. Cells were analyzed by flow cytometry with FACS Verse (BD Biosciences).

murine OX40 = target: T4, murine OX40; test: ELISA
CD40 (Ancell) [9] = target: T5, CD40 (Ancell); test: ELISA
[10] = target: T8, recombinant human CD137-Fc (R&D #838-4B) (human, UniProt Q07011 24-186); test: ELISA
T8 construct: Bought; also called Human CD137 (R&D systems); CD137 (R&D Systems); not shown: Fc part, not described

CTLA-4 (BMS, Orencia) = CTLA-4 (BMS, Orencia) (human, UniProt P16410 38-152); test: cell-based or functional assay
CTLA-4 (BMS, Orencia), sequence (P16410 38-152 limits assumed): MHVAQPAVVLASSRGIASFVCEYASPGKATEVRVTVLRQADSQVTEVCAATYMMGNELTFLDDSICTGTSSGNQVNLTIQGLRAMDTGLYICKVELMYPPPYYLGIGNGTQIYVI

CD137 on primary human CD8+ T cells, sequence (Q07011 24-255 limits assumed): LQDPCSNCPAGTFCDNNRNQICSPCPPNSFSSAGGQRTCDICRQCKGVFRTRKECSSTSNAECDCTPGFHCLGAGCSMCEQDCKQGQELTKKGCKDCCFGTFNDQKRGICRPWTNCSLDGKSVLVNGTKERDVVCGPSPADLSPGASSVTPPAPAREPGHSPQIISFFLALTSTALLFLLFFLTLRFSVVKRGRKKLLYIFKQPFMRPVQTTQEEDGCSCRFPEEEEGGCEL
T5 sequence (P25942 21-193 limits assumed): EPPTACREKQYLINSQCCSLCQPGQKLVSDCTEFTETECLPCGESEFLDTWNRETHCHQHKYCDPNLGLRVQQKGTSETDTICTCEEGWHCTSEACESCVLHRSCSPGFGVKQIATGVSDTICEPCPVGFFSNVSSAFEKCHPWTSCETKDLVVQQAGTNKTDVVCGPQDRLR
T8 sequence (Q07011 24-186 limits assumed): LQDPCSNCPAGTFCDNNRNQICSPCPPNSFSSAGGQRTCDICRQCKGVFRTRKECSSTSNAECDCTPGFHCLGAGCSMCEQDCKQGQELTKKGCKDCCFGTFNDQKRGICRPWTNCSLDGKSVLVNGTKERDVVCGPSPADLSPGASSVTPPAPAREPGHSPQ
extracellular part of OX40 from Macaca mulatta fused to the transmembrane and intracellular part of hCD40, on …, sequence (P25942 other isoform, or with tags, fused parts or gaps): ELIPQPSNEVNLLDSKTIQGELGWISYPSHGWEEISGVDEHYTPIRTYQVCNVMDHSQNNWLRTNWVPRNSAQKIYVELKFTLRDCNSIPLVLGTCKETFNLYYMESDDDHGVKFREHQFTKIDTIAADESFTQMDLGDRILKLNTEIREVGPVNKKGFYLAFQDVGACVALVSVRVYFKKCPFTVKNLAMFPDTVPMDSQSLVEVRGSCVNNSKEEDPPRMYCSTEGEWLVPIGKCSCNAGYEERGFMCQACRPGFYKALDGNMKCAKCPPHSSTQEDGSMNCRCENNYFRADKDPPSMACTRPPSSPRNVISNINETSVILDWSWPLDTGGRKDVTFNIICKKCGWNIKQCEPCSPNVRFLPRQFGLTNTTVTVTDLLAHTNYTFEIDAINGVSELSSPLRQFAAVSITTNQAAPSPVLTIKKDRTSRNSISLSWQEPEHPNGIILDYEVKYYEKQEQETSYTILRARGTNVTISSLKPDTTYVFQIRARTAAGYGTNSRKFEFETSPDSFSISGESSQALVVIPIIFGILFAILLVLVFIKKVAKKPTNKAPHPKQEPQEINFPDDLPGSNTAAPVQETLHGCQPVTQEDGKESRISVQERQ
T6 sequence (P20334 other isoform, or with tags, fused parts or gaps mutant limits assumed): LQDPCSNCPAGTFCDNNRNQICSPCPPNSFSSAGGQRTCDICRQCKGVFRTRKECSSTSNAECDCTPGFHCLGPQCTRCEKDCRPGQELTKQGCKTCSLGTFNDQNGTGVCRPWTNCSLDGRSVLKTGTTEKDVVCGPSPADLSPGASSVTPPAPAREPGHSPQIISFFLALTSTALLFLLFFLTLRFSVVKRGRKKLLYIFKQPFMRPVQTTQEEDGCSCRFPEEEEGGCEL
T7 sequence (P20334 other isoform, or with tags, fused parts or gaps mutant limits assumed): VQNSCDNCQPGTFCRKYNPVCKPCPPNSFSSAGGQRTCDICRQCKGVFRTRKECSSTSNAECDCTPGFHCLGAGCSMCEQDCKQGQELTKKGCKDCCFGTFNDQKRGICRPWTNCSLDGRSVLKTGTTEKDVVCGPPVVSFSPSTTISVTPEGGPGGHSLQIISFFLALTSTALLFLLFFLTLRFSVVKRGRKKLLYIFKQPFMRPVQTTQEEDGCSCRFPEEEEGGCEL

Max IFN-γ [1]	Mean IFN-γ [1]	Min IFN-γ [1]	binding result [2]	binding result (CD40 (Ancell) [3])	relative MFI vs isotype control [6]	relative MFI vs isotype control [7]	binding result (murine OX40)	binding result (CD40 (Ancell) [9])	binding result [10]	Binder	further results
32200 pg/mL	15100 pg/mL	4160 pg/mL	no binding (tested: 10 µg/ml)	no binding (tested: 10 µg/ml)	–	–	–	–	–	anti-CD137 antibody 1626/1627 (antibody, IgG1, V domains shown, Produced as IgG; also called 1626-bio) VH: EVQLLESGGGLVQPGGSLRLSCAASGFTFGGYSMYWVRQAPGKGLEWVSSIGGYYYSTYYADSVKGRFTISRDNSKNTLYLQMNSLRAEDTAVYYCARSYYGSIDYWGQGTLVTVSS VL: DIQMTQSPSSLSASVGDRVTITCRASQSISSYLNWYQQKPGKAPKLLIYAASSLQSGVPSRFSGSGSGTDFTLTISSLQPEDFATYYCQQGTGYGPLTFGQGTKLEIK	–
–	–	–	–	–	12.1	20.3	no binding	no binding	no binding	anti-OX40 antibody 1170/1171 (antibody, V domains shown, Tested as IgG) VH: EVQLLESGGGLVQPGGSLRLSCAASGFTFGGYYMSWVRQAPGKGLEWVSYIPGSGGSTYYADSVKGRFTISRDNSKNTLYLQMNSLRAEDTAVYYCARYDYYWMDYWGQGTLVTVSS VL: DIQMTQSPSSLSASVGDRVTITCRASQSISSYLNWYQQKPGKAPKLLIYAASSLQSGVPSRFSGSGSGTDFTLTISSLQPEDFATYYCQQGHGSYPHTFGQGTKLEIK	–
–	–	–	–	–	10.6	17.2	no binding	no binding	no binding	anti-OX40 antibody 1514/1515 (antibody, V domains shown, Tested as IgG) VH: EVQLLESGGGLVQPGGSLRLSCAASGFTFGYYYMSWVRQAPGKGLEWVSGISSYGSYTYYADSVKGRFTISRDNSKNTLYLQMNSLRAEDTAVYYCARSGYSNWANSFDYWGQGTLVTVSS VL: DIQMTQSPSSLSASVGDRVTITCRASQSISSYLNWYQQKPGKAPKLLIYAASSLQSGVPSRFSGSGSGTDFTLTISSLQPEDFATYYCQQGDYTLFTFGQGTKLEIK	–

The next lines start with the binder.

Binder	Max IFN-γ [1]	Mean IFN-γ [1]	Min IFN-γ [1]	binding result [2]	binding result (CD40 (Ancell) [3])	relative MFI vs isotype control [6]	relative MFI vs isotype control [7]	binding result (murine OX40)	binding result (CD40 (Ancell) [9])	binding result [10]	further results
anti-CD137 antibody 1214/1215 (antibody, IgG1, V domains shown, Produced as IgG; also called 1214-bio) VH: EVQLLESGGGLVQPGGSLRLSCAASGFTFSSYAMSWVRQAPGKGLEWVSSIGSGGGYTGYADSVKGRFTISRDNSKNTLYLQMNSLRAEDTAVYYCARVGHPFDYWGQGTLVTVSS VL: DIQMTQSPSSLSASVGDRVTITCRASQSISSYLNWYQQKPGKAPKLLIYAASSLQSGVPSRFSGSGSGTDFTLTISSLQPEDFATYYCQQDAYPHTFGQGTKLEIK	122000 pg/mL	51800 pg/mL	8210 pg/mL	no binding (tested: 10 µg/ml)	no binding (tested: 10 µg/ml)	–	–	–	–	–	–
anti-CD137 antibody 1620/1621 (antibody, IgG1, V domains shown, Produced as IgG) VH: EVQLLESGGGLVQPGGSLRLSCAASGFTFSGYYMYWVRQAPGKGLEWVSGISSSGSYTYYADSVKGRFTISRDNSKNTLYLQMNSLRAEDTAVYYCARSVGPYFDYWGQGTLVTVSS VL: DIQMTQSPSSLSASVGDRVTITCRASQSISSYLNWYQQKPGKAPKLLIYAASSLQSGVPSRFSGSGSGTDFTLTISSLQPEDFATYYCQQGVGPYTFGQGTKLEIK	123000 pg/mL	52400 pg/mL	7730 pg/mL	no binding (tested: 10 µg/ml)	no binding (tested: 10 µg/ml)	–	–	–	–	–	–
anti-CD137 antibody 1204/1205 (antibody, IgG1, V domains shown, Produced as IgG; also called 1204-bio) VH: EVQLLESGGGLVQPGGSLRLSCAASGFTFSSYYMGWVRQAPGKGLEWVSGIGSYYGYTGYADSVKGRFTISRDNSKNTLYLQMNSLRAEDTAVYYCARAYYDYNYYYAYFDYWGQGTLVTVSS VL: DIQMTQSPSSLSASVGDRVTITCRASQSISSYLNWYQQKPGKAPKLLIYAASSLQSGVPSRFSGSGSGTDFTLTISSLQPEDFATYYCQQSVPHYPFTFGQGTKLEIK	153000 pg/mL	64400 pg/mL	13100 pg/mL	no binding (tested: 10 µg/ml)	no binding (tested: 10 µg/ml)	–	–	–	–	–	relative binding (MFI sample/isotype control, normalised to full-length human CD137) [4]: 0.73; relative binding (MFI sample/isotype control, normalised to full-length human CD137) [5]: 0.28
anti-OX40 antibody 1166/1167 (antibody, V domains shown, Tested as IgG) VH: EVQLLESGGGLVQPGGSLRLSCAASGFTFGGYYMSWVRQAPGKGLEWVSAISGSGGSTYYADSVKGRFTISRDNSKNTLYLQMNSLRAEDTAVYYCARYDYASMDYWGQGTLVTVSS VL: DIQMTQSPSSLSASVGDRVTITCRASQSISSYLNWYQQKPGKAPKLLIYAASSLQSGVPSRFSGSGSGTDFTLTISSLQPEDFATYYCQQYYWYGLSTFGQGTKLEIK	–	–	–	–	–	11.3	15.8	no binding	no binding	no binding	EC50 [8]: 0.16 to 0.242 µg/mL
bispecific molecule 1526/1585 (OX40 x CTLA-4) (bispecific antibody, human IgG1, kappa) heavy: not shown light: DIQMTQSPSSLSASVGDRVTITCRASQSISSYLNWYQQKPGKAPKLLIYAASSLQSGVPSRFSGSGSGTDFTLTISSLQPEDFATYYCQQYGSDSLLTFGQGTKLEIKRTVAAPSVFIFPPSDEQLKSGTASVVCLLNNFYPREAKVQWKVDNALQSGNSQESVTEQDSKDSTYSLSSTLTLSKADYEKHKVYACEVTHQGLSSPVTKSFNRGECSGGGGSGGGGSAPLKIQAYFNETADLPCQFANSQNLSLSELVVFWQDQENLVLNEVYLGKERFDSVDSKYMGRTSFDSDSWTLRLHNLQIKDKGRYQCIIHHKKPTGMINIHQMNSELSVLA	–	–	–	–	–	–	–	–	–	–	Mean IL-2 level (pg/ml) induced at 1.5 nM (CTLA-4 (BMS, Orencia)): 3200 pg/mL
